Source: the FLAb antibody collection (doi:10.7554/elife.23156)

B1: scFv; the commonest letter at each place (parent)
chain 1: EVKLDETGGGLVQPGRPMKLSCVASGFTFSDYWMNWVRQSPEKGLEWVAQIRNKPYNYETYYSDSVKGRFTISRDDSKSSVYLQMNNLRVEDMGIYYCTGSYYGMDYWGQGTSVTVS
chain 2: DVVMTQTPLSLPVSLGDQASISCRSSQSLVHSNGNTYLRWYLQKPGQSPKVLIYKVSNRFSGVPDRFSGSGSGTDFTLKISRVEAEDLGVYFCSQSTHVPWTFGGGTKLEIK

How the values were obtained:
fluorescein = variants of: B1; test: Kd (Tite-Seq); details: with fluorescein; format: scFv 4-4-20, heavy + light
[1] = variants of: B1; test: yeast surface expression (ratio to wild type); higher = more expressed; details: format: scFv 4-4-20, heavy + light

Variant	Kd (fluorescein) [µM]	yeast surface expression [1]
chain 1 Y103E W108D	≥ 10	0.473
chain 1 Y103E W108N	≥ 10	0.446
chain 1 Y103E W108R	≥ 10	0.463
chain 1 Y103E Y107V	≥ 10	1.07
chain 1 Y103F G104R W108Y	≥ 10	0.139
chain 1 Y103F G109F	≥ 10	0.237
chain 1 Y103F M105T	≥ 10	1.01
chain 1 Y103G G109T	≥ 10	0.68
chain 1 Y103G M105N	≥ 10	1.46
chain 1 Y103G M105S	≥ 10	0.983
chain 1 Y103H D106H	≥ 10	0.611
chain 1 Y103H G104F	≥ 10	0.477
chain 1 Y103H G109M	≥ 10	0.304
chain 1 Y103H M105F Y107L	≥ 10	0.92
chain 1 Y103H W108R	≥ 10	0.35
chain 1 Y103H Y107I	≥ 10	1.25
chain 1 Y103H Y107Q	≥ 10	0.941
chain 1 Y103I D106A	≥ 10	0.489
chain 1 Y103I D106L	≥ 10	0.354
chain 1 Y103I D106Q	≥ 10	0.516
chain 1 Y103I D106W	≥ 10	0.188
chain 1 Y103I G104M	≥ 10	0.368
chain 1 Y103I G104P G109M	≥ 10	0.279
chain 1 Y103I G109V	≥ 10	0.222

Variant	Kd (fluorescein) [µM]	yeast surface expression [1]
chain 1 Y103I M105E	≥ 10	0.733
chain 1 Y103I W108S	≥ 10	0.397
chain 1 Y103I Y107F W108D	≥ 10	0.437
chain 1 Y103K D106M	≥ 10	0.716
chain 1 Y103K G104I	≥ 10	0.711
chain 1 Y103K G104R W108V	≥ 10	0.32
chain 1 Y103K G109W	≥ 10	0.123
chain 1 Y103L D106H G109F	≥ 10	0.0981
chain 1 Y103L D106I	≥ 10	0.764
chain 1 Y103L D106P	≥ 10	0.559
chain 1 Y103L G104Y	≥ 10	0.604
chain 1 Y103L G109I	≥ 10	0.206
chain 1 Y103L G109M	≥ 10	0.208
chain 1 Y103L M105C	≥ 10	1
chain 1 Y103L M105G	≥ 10	1.02
chain 1 Y103L M105I	≥ 10	0.741
chain 1 Y103L W108D	≥ 10	0.501
chain 1 Y103L Y107D	≥ 10	0.471
chain 1 Y103M D106F Y107G	≥ 10	0.265
chain 1 Y103M D106G	≥ 10	0.479
chain 1 Y103M G104M M105L	≥ 10	0.562
chain 1 Y103M G109W	≥ 10	0.221
chain 1 Y103M G109Y	≥ 10	0.265
chain 1 Y103M M105H D106Y	≥ 10	0.63

Variant	Kd (fluorescein) [µM]	yeast surface expression [1]
chain 1 Y103N D106N W108T	≥ 10	0.736
chain 1 Y103N G104F	≥ 10	0.839
chain 1 Y103N G104P	≥ 10	0.478
chain 1 Y103N G104Q	≥ 10	0.766
chain 1 Y103N G104T	≥ 10	0.851
chain 1 Y103N G104T Y107K	≥ 10	0.619
chain 1 Y103N G109P	≥ 10	0.519
chain 1 Y103N M105G Y107M	≥ 10	0.836
chain 1 Y103P	≥ 10	0.791
chain 1 Y103P D106H	≥ 10	0.565
chain 1 Y103P D106M	≥ 10	0.742
chain 1 Y103P D106T W108C	≥ 10	0.258
chain 1 Y103P G109S	≥ 10	0.828
chain 1 Y103P M105K	≥ 10	0.785
chain 1 Y103P W108M	≥ 10	0.463
chain 1 Y103P W108Y	≥ 10	0.364
chain 1 Y103P Y107D	≥ 10	0.617
chain 1 Y103P Y107E	≥ 10	0.763
chain 1 Y103Q D106M	≥ 10	0.805
chain 1 Y103Q G104N	≥ 10	0.905
chain 1 Y103Q M105G	≥ 10	0.906
chain 1 Y103Q M105T	≥ 10	0.874
chain 1 Y103Q W108N	≥ 10	0.415

Now from value to variant, other results behind:

Kd (fluorescein) [µM]	Variant	yeast surface expression [1]
≥ 10	chain 1 Y103D G109R	0.269
≥ 10	chain 1 Y103D M105N	1.19
≥ 10	chain 1 Y103D M105Y	1.03
3.74	chain 1 Y103D W108H	0.708
≥ 10	chain 1 Y103D W108R	0.524
≥ 10	chain 1 Y103D Y107C	0.646
1.26	chain 1 Y103D Y107N	1.12
≥ 10	chain 1 Y103D Y107R	0.955
0.0166	chain 1 Y103E	0.857
≥ 10	chain 1 Y103E D106P	0.413
≥ 10	chain 1 Y103E G109I	0.277
≥ 10	chain 1 Y103E M105I	0.9
0.0221	chain 1 Y103E W108C	0.758
0.004	chain 1 Y103E W108I	1.12
0.0171	chain 1 Y103E W108T	1.01
0.000763	chain 1 Y103F	1.06
≤ 0.000316	chain 1 Y103F W108I	0.885
0.0171	chain 1 Y103F W108K	0.318
0.00672	chain 1 Y103F W108Q	0.382
0.0146	chain 1 Y103F Y107V	0.817
0.0171	chain 1 Y103G	1.14

Kd (fluorescein) [µM]	Variant	yeast surface expression [1]
0.00194	chain 1 Y103G W108F	1.06
0.0221	chain 1 Y103G Y107W	1.21
0.0132	chain 1 Y103H	1.1
0.018	chain 1 Y103I	0.964
0.0146	chain 1 Y103I M105W	0.528
3.74	chain 1 Y103I W108C	0.359
0.00301	chain 1 Y103K	1.04
0.00708	chain 1 Y103L	1.08
0.167	chain 1 Y103L G109S	0.855
0.55	chain 1 Y103L Y107S	0.878
0.0015	chain 1 Y103M	1.27
1.14	chain 1 Y103M M105N	1.52
0.00746	chain 1 Y103M W108A	0.484
0.000333	chain 1 Y103M W108M	1.13
0.0896	chain 1 Y103M W108Q	0.547
0.00204	chain 1 Y103M Y107W	0.871
0.00708	chain 1 Y103N	1.17
0.0199	chain 1 Y103Q	1.33
4.37	chain 1 Y103Q M105Q	1.14
0.712	chain 1 Y103Q W108A	0.644
0.00444	chain 1 Y103R	0.971
